Among the data in publication PMC10786891, “Massively parallel profiling of RNA-targeting CRISPR-Cas13d” are Kd values, retold here.

Changes are numbered by the printed parent chain. Names and notes keep the numbering of the source.

A word on the Kd: it is the constant that tells how readily two partners part at equilibrium. Read a high Kd as lower affinity.

T1: EsCas13d, nuclease-dead (Eubacterium siraeum, UniProt B0MS50, R295A;H300A;R849A;H854A)
T1 sequence: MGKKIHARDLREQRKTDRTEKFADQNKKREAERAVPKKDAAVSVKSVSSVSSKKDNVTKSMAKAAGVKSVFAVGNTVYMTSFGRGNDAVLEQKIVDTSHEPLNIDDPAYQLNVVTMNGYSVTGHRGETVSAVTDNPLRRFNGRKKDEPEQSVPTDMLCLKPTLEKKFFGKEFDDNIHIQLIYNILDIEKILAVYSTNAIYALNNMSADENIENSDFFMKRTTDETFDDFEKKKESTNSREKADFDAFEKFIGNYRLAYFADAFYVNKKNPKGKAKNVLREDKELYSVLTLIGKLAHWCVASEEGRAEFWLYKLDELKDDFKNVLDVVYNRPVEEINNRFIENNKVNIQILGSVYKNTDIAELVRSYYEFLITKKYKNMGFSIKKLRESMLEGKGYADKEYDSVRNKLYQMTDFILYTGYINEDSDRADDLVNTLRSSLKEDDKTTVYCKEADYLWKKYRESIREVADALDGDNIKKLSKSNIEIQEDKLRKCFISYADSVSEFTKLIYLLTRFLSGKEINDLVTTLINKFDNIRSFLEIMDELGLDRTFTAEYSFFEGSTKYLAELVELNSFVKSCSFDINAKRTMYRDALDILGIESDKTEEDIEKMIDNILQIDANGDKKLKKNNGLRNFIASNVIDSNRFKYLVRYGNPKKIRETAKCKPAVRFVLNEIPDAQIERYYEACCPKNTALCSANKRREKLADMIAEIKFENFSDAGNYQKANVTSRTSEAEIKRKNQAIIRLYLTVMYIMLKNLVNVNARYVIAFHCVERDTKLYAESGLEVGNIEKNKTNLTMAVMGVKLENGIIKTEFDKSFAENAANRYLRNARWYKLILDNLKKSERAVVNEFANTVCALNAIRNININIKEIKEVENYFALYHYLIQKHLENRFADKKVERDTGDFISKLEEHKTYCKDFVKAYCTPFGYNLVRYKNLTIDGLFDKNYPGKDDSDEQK

B1: target 1 insU 3' of 20,insA 3' of 6 (mixed)
RNA 1: CACCCGUGCAAAAAUGCAGGGGUCUAAAACUGAGCGGAUAACCUCUCUAUGG
RNA 2: GGGAAUGGAUCCACAUCUACGAAUUCGUACCAUUAGAGAGGUUAUCCAGCUCACCGAGAUCGGAAGAGCACACGU
B2: target 1 C2A,C22A (mixed)
RNA 1: B1 RNA 1
RNA 2: GGGAAUGGAUCCACAUCUACGAAUUCGUAACAUAGAGAGGUUAUCCGCUAACCGAGAUCGGAAGAGCACACGU
B3: target 1 U8G,A9G (mixed)
RNA 1: B1 RNA 1
RNA 2: B2 RNA 2 with A30C, A43G, U44G, A50C
B4: target 1 del13 (mixed)
RNA 1: B1 RNA 1
RNA 2: GGGAAUGGAUCCACAUCUACGAAUUCGUACCAUAGAGAGUUAUCCGCUCACCGAGAUCGGAAGAGCACACGU
B5: target 1 G12C,C22U (mixed)
RNA 1: B1 RNA 1
RNA 2: B2 RNA 2 with A30U, G40C, A50C
B6: target 1 insA 3' of 3,insG 3' of 2 (mixed)
RNA 1: B1 RNA 1
RNA 2: GGGAAUGGAUCCACAUCUACGAAUUCGUACCAUAGAGAGGUUAUCCGCUACGACCGAGAUCGGAAGAGCACACGU
B7: target 1 G12A,A16G (mixed)
RNA 1: B1 RNA 1
RNA 2: B2 RNA 2 with A30C, A36G, G40A, A50C
B8: target 1 insC 3' of 17,insU 3' of 5 (mixed)
RNA 1: B1 RNA 1
RNA 2: B1 RNA 2 with U34A, A35G, G36C, A48G, G49U
B9: target 1 C7G,U11A (mixed)
RNA 1: B1 RNA 1
RNA 2: B2 RNA 2 with A30C, U41A, C45G, A50C
B10: target 1 insA 3' of 21,insA 3' of 11 (mixed)
RNA 1: B1 RNA 1
RNA 2: B1 RNA 2 with U33A, U43A, A44U, U45A, C46U, A48C
B11: target 1 U10G,A14C (mixed)
RNA 1: B1 RNA 1
RNA 2: B2 RNA 2 with A30C, A38C, U42G, A50C
B12: target 1 C7A,A9G (mixed)
RNA 1: B1 RNA 1
RNA 2: B2 RNA 2 with A30C, A43G, C45A, A50C
B13: target 1 insC 3' of 14,insG 3' of 7 (mixed)
RNA 1: B1 RNA 1
RNA 2: B1 RNA 2 with U34A, A35G, G36A, A37G, G38A, A39C, C47G, A48C
B14: target 1 del11,del22 (mixed)
RNA 1: B1 RNA 1
RNA 2: GGGAAUGGAUCCACAUCUACGAAUUCGUACAUAGAGAGGUAUCCGCUCACCGAGAUCGGAAGAGCACACGU
B15: target 1 A1U,C6A (mixed)
RNA 1: B1 RNA 1
RNA 2: B2 RNA 2 with A30C, C46A, A50C, A51U
B16: target 1 complement block 9-12 (mixed)
RNA 1: B1 RNA 1
RNA 2: B2 RNA 2 with A30C, G40C, U41A, U42A, A43U, A50C
B17: target 1 C6A (mixed)
RNA 1: B1 RNA 1
RNA 2: B2 RNA 2 with A30C, C46A, A50C
B18: target 1 insU 3' of 18,insU 3' of 1 (mixed)
RNA 1: B1 RNA 1
RNA 2: B1 RNA 2 with U34A, A35U, A48G, G49C, C50U, U51C, C52A, A53U
B19: target 1 G17U,U19C (mixed)
RNA 1: B1 RNA 1
RNA 2: B2 RNA 2 with A30C, U33C, G35U, A50C
B20: target 1 complement block 3-5 (mixed)
RNA 1: B1 RNA 1
RNA 2: B2 RNA 2 with A30C, G47C, C48G, U49A, A50C
B21: target 1 insU 3' of 9,insU 3' of 6 (mixed)
RNA 1: B1 RNA 1
RNA 2: B6 RNA 2 with C45U, G47C, C48U, U49G, A50C, C51U, G52C
B22: target 1 complement block 6-9 (mixed)
RNA 1: B1 RNA 1
RNA 2: B2 RNA 2 with A30C, A43U, U44A, C45G, C46G, A50C
B23: target 1 insC 3' of 10,insA 3' of 5 (mixed)
RNA 1: B1 RNA 1
RNA 2: B6 RNA 2 with A43C, U44A, C45U, G47C, C48G, U49A, A50C, C51U, G52C
B24: target 1 insC 3' of 19,insA 3' of 19 (mixed)
RNA 1: B1 RNA 1
RNA 2: GGGAAUGGAUCCACAUCUACGAAUUCGUACCAUCAAGAGAGGUUAUCCGCUCACCGAGAUCGGAAGAGCACACGU
B25: target 1 insA 3' of 19,insC 3' of 11 (mixed)
RNA 1: B1 RNA 1
RNA 2: B1 RNA 2 with U34A, U43C, A44U, U45A, C46U, A48C
B26: target 1 insU 3' of 7,insG 3' of 1 (mixed)
RNA 1: B1 RNA 1
RNA 2: B6 RNA 2 with C46U, G47C, C48G, U49C, A50U, G52A, A53G
B27: target 1 C2G,U11C (mixed)
RNA 1: B1 RNA 1
RNA 2: B2 RNA 2 with A30C, U41C, A50G
B28: target 1 insG 3' of 19,insA 3' of 15 (mixed)
RNA 1: B1 RNA 1
RNA 2: B24 RNA 2 with C34G, A36G, G37A, A38G, G39A
B29: target 1 insC 3' of 17,insC 3' of 13 (mixed)
RNA 1: B1 RNA 1
RNA 2: B24 RNA 2 with C34A, A35G, A36C, G37A, A38G, G39A, A40G, G41C
B30: target 1 insU 3' of 12,insG 3' of 10 (mixed)
RNA 1: B1 RNA 1
RNA 2: B24 RNA 2 with C34A, A35G, A40G, G41U, G42U, U44G
B31: target 1 U8A,G12U (mixed)
RNA 1: B1 RNA 1
RNA 2: B2 RNA 2 with A30C, G40U, U44A, A50C
B32: target 1 G12U,A18G (mixed)
RNA 1: B1 RNA 1
RNA 2: B2 RNA 2 with A30C, A34G, G40U, A50C

The series addresses T1, EsCas13d, nuclease-dead. Briefly: crRNA (strand 1, pre-loaded); Mg2+; 40 mM Tris-HCl pH 7.5, 150 mM NaCl, 6 mM MgCl2, 1 mM DTT, 0.1% Tween-20, 0.2 mg/ml BSA; 25 C; 10 min per concentration, then washed. The settings on record: tags: His6-TwinStrep-SUMO cleaved; N-terminal SNAP kept (SNAP-Surface 488); label: 3' end held by stalled T7 RNA polymerase.
With B1, the Kd was 15.9 ± 1.1 nM.

With B2, binding was characterised by a dissociation constant (Kd) of 17.8 ± 3.3 nM.

For the molecule B3, binding was characterised by a dissociation constant (Kd) of 19.1 ± 1.3 nM.

In turn, B4 had a dissociation constant Kd of 8.6 ± 0.6 nM.

Consider B5, for which the Kd came to 23.5 ± 1.5 nM.

Molecule B6 showed a Kd of 7.05 ± 0.31 nM.

Turning to B7, binding was put at a Kd of 48 ± 5 nM.

B8: the dissociation constant Kd was determined as 35.2 ± 3.2 nM.

Molecule B9 had a Kd of 25 ± 4 nM.

Consider B10, for which the Kd turned out to be 36.6 ± 2.9 nM.

As for B11, the dissociation constant (Kd) is 94 ± 23 nM.

In the case of B12, the Kd is 11.5 ± 0.5 nM.

As to B13, binding was characterised by a dissociation constant (Kd) of 41 ± 8 nM.

Consider B14, for which the Kd is 78 ± 33 nM.

In the case of B15, the Kd was determined as 7.5 ± 0.4 nM.

B16 came in with a Kd of 19.9 ± 2.7 nM.

Take B17: the equilibrium dissociation constant (Kd) was determined as 6.17 ± 0.3 nM.

B18 came in with a dissociation constant Kd of 33 ± 1.8 nM.

B19 registered a Kd of 14.4 ± 0.8 nM.

Consider B20, for which the equilibrium dissociation constant (Kd) was found to be 10.5 ± 1 nM.

In turn, B21 gave a Kd of 46 ± 6 nM.

Molecule B22 had a Kd of 7.7 ± 0.5 nM.

On to B23, for which binding was put at a Kd of 10.4 ± 1.1 nM.

For the molecule B24, binding was put at a Kd of 31.3 ± 2.9 nM.

The molecule B25 gave a dissociation constant (Kd) of 100 ± 40 nM.

Regarding B26, the equilibrium dissociation constant (Kd) amounted to 13.8 ± 0.6 nM.

B27: binding was characterised by a dissociation constant (Kd) of 7.4 ± 0.4 nM.

B28: the Kd worked out at 56 ± 7 nM.

For B29, the Kd is 48 ± 7 nM.

Turning to B30, the Kd was found to be 13.1 ± 0.5 nM.

For B31, the equilibrium dissociation constant (Kd) turned out to be 13.1 ± 0.8 nM.

Consider B32, for which the Kd turned out to be 78 ± 16 nM.
